One test addresses T1, integrin α9β1 (Homo sapiens, UniProt P05556+Q13797).
T1 construct: A cDNA encoding the extracellular region of human integrin α9; An expression vector for the extracellular region of integrin β1; ACID coiled-coil (Velcro) peptide; FLAG; BASE coiled-coil (Velcro) peptide; made in house; host or cells: FreeStyle 293 Expression System (293-F cells)
Nature of the test: Direct integrin binding assay with recombinant integrin α9β1. The following applies: for binding of integrin α9β1 to smaller segments of D2628-S2664: 1 mM MnCl2, FIG. 13; for binding of recombinant integrin α9β1 to coated protein: 1 mM MnCl2, FIG. 7. The text has this: A cDNA encoding the extracellular region of human integrin α9 was amplified by RT-PCR from total RNA extracted from RD cells and cloned into pBluescript KS(+). After verification of the nucleotide sequence, an error-free cDNA fragment was inserted into pcDNA-ACID-FLAG (Nishiuchi, R., Takagi, J., Hayashi, M., Ido, H., Yagi, Y., Sanzen, N., Tsuji, T., Yamada, M., and Sekiguchi, K. (2006) Matrix Biol. 25, 189-197). An expression vector for the extracellular region of integrin β1 was provided by Dr. Junichi Takagi (Takagi, J., Erickson, H. P., and Springer, T. A. (2001) Nat. Struct. Biol. 8, 412-416). The recombinant integrins were produced using the Freestyle™ 293 Expression System (Invitrogen) and purified as described in the above-mentioned publication Matrix Biol. 25, 189-197, (2006).
An integrin binding assay was performed as described in the above-mentioned publication Matrix Biol. 25, […], (2006). In some experiments, integrins were preincubated with synthetic peptides at various concentrations to evaluate the inhibitory activities of the synthetic peptides. The apparent dissociation constants were determined as described in Nishiuchi, R., Murayama, O., Fujiwara, H., Gu, J., Kawakami. T., Aimoto, S., Wada, Y., and Sekiguchi, K. (2003) J. Biochem, 134, 497-504.
To corroborate the role of integrin α9β1 as an adhesion receptor for polydom, a direct integrin binding assay was performed, using recombinant integrin α9β1. Plates were coated with full-length polydom, pol-N, pol-C, plasma fibronectin (pFN) or cellular fibronectin (cFN), and recombinant integrin α9β1 was added and allowed to bind thereto in the presence of 1 mM MnCl2 or 10 mM EDTA. BSA was used as a negative control. The bound integrin was quantified using a biotinylated anti-Velcro antibody and HRP-conjugated streptavidin.
Integrin α9β1 is known to bind to the third fibronectin type III domain of tenascin-C (TNfn3) and the osteopontin N-terminal half (OPN-Nhalf). These integrin α9β1 ligands were recombinantly expressed as GST fusion proteins and then purified. In the GST fusion proteins, the RGD cell-adhesive motifs were replaced with RAA to nullify their abilities to interact with RGD-binding integrins, such as those containing the αv subunit, Microtiter plates were coated with pol-C (10 nM), GST-TNfn3-RAA (100 nM) or GST-OPN-Nhalf-RAA (100 nM), and integrin α9β1 was added and allowed to bind thereto in the presence of 1 mM MnCl2.
To locate the integrin α9β1-binding site within polydom, a series of five N-terminal deletion mutants of polydom (pol-C, ΔEGF6, ΔPTX, ΔCCP20 and ΔCCP21; see FIG. 9) were constructed. Their binding activities for integrin α9β1 were evaluated in the presence of 1 mM MnCl2 or 10 mM EDTA using microtiter plates coated with these recombinant proteins (10 nM).
Among the 34 CCP domains within polydom, CCP21 is unique because it contains about 40 extra amino acids as compared with the other CCP domains. An assay to examine whether this extra region (hereinafter referred to as “extra segment”) within CCP21 is involved in binding to integrin α9β1 was performed, Microtiter plates were coated with a GST-CCP21 fusion protein, a D2628-S2664 deletion mutant of the GST-CCP21 fusion protein (CCP21ΔD2628-S2664), D2628-S2664 alone (see FIG. 11), pol-C or GST alone, and integrin α9β1 was added and allowed to bind thereto in the presence of 1 mM MnCl2 or 10 mM EDTA.
To further narrow down the region responsible for binding to integrin α9β1, the extra 37-amino acid segment of CCP21 was divided into smaller segments, of which GST fusion proteins were produced. Microtiter plates were coated with eight kinds of segments including CCP21, pol-C and GST alone, and integrin α9β1 was added and allowed to bind thereto in the presence of 1 mM MnCl2 or 10 mM EDTA.
To identify the residues involved in binding to Integrin α9β1, alanine scanning mutants and N-terminal or C-terminal deletion mutants of D2634-L2645 were produced as GST fusion proteins. […]

A further test concerns RD cells. Nature of the test: Cell adhesion assay on coated plates (RD cells). The note with it: for promotion of RD cell adhesion: coated 96-well plates, 37° C. for 30 minutes. It counts as cell-based, human. As to the method: A cell adhesion assay was performed as described in Sato, Y. , Uemura, T., Morimitsu, K., Sato-Nishiuchi, R., Manabe, R., Takagi, J., Yamada, M., and Sekiguchi, K. (2009) J. Biol. Chem. 284, 14524-14536. For an assay involving blocking antibodies, RD cells (human rhabdomyosarcoma cells) were preincubated with monoclonal antibodies of interest at room temperature for 15 minutes and plated on 96-well plates coated with recombinant polydom proteins or fibronectin. The cells were incubated for 30 minutes, washed, fixed with 3.7% formaldehyde, and stained with 0.5% toluidine blue.
The cells were plated on 96-well plates coated with serial diluted concentrations of full-length polydom, pol-N, pol-C or plasma fibronectin (FN) and incubated at 37° C. for 30 minutes. After washing out unattached cells, attached cells were fixed and stained with toluidine blue. The attached cells were counted under a microscope. The assay was performed in triplicate.

In the next test the test system is hematopoietic stem cells. Nature of the test: Proliferation of hematopoietic stem cells on coated plates. It is filed as cell-based, mouse. The note with it: peptide 50 μM for 2 hours, then polydom-coated plate, FIG. 20. As to the method:
Bone marrow cells were flushed out from the femurs and tibias of three mice of 6 to 7 weeks of age (C57BL/6J) and dissociated with a 22G needle. The cells were reacted with a biotin-labeled anti-lineage antibody for 30 minutes and subsequently with an anti-blotin antibody-conjugated magnetic beads, and lineage-positive cells were removed by automated magnetic cell sorter autoMACS (Miltenyi Biotec). After staining with PE-CD3, PE-Mac1, PE-Gr1, PE-Ter119, PE-B220, FTTC-Sca1 and APC-c-Kit, a lineage(−) Sca1(+) c-Kit (high) cell fraction was sorted out using FACSAria and used for the experiments described below.
The above-prepared cells were plated on a 48-well plate coated with a recombinant polydom protein or fibronectin. The same type of plate without coating was used as a control. The medium used was RPMI containing 10% fetal calf serum, thrombopoietin (30 ng/ml) and flt3 ligand (100 ng/ml). For the examination of cell proliferation, the cells were plated in duplicate wells for each coating at 1000 cells/well and started to be cultured, and the cell number was counted at the start of culture, and on day 2 and day 3. The remaining cells were divided into three aliquots, plated in wells for each coating, and subjected to FACS analysis on day 3 after the start of culture. For the FACS analysis, staining with an antibody cocktail containing PE-CD3, PE-Mac1, PE-Gr1, PE-Ter119, PE-B220, FITC-Sca1 and APC-c-Kit was performed and FACSCont was used.
The above-prepared cells were divided into three groups and plated on 48-well plates at 5000 cells/well. The medium used was RPMI containing 10% fetal calf serum, thrombopoietin (30 ng/ml) and flt3 ligand (100 ng/ml). For an EDDMMEVPY peptide treatment group, 2 μl of the peptide was added to each well at the final concentration of 50 μM, and for the other two groups, 2 μl of PBS was added to each well. Then, the culture was performed at […] for 2 hours. Subsequently, the cells were transferred to 48-well plates coated with a recombinant polydom protein or fibronectin. The cells cultured in the presence of the peptide were transferred to the recombinant polydom protein-coated plate, and the cells in one of the other two groups were transferred to the recombinant polydom protein-coated plate, and the cells in the remaining group were transferred to the fibronectin-coated plate. The culture was continued for 3 days and the cell numbers were counted on day 2, day 3 and […].

The target in test [1] is recombinant integrin α9β1 (human, UniProt Q13797 30-981; P05556 21-728). Nature of the test: inhibition of integrin α9β1 (10 nM) binding to coated pol-C (10 nM) by synthetic peptide, 1 mM MnCl2, 10% DMSO. As to the method:
To further corroborate the role of […] as the integrin α9β1 recognition sequence, an integrin α9β1-pol-C binding inhibition assay was performed using synthetic peptides consisting of the […] sequence or a part of the sequence, Integrin α9β1 (10 nM) was incubated on microtiter plates coated with pol-C (10 nM) in the presence of 1 mM MnCl₂ and various concentrations of the synthetic peptides. To prevent precipitation of the peptides, the assay was performed in the presence of 10% DMSO. Based on the amount of integrin α9β1 bound to pol-C set as 100%, the relative binding amount was calculated.

These results are taken from patent US20150086557A1, “NOVEL INTEGRIN alpha9 beta1 LIGAND AND USES THEREOF” (OSAKA UNIVERSITY, priority 2012, published 2015).

Where no end group is shown, it is not given here.

T1 sequence (Q13797 30-981 limits assumed): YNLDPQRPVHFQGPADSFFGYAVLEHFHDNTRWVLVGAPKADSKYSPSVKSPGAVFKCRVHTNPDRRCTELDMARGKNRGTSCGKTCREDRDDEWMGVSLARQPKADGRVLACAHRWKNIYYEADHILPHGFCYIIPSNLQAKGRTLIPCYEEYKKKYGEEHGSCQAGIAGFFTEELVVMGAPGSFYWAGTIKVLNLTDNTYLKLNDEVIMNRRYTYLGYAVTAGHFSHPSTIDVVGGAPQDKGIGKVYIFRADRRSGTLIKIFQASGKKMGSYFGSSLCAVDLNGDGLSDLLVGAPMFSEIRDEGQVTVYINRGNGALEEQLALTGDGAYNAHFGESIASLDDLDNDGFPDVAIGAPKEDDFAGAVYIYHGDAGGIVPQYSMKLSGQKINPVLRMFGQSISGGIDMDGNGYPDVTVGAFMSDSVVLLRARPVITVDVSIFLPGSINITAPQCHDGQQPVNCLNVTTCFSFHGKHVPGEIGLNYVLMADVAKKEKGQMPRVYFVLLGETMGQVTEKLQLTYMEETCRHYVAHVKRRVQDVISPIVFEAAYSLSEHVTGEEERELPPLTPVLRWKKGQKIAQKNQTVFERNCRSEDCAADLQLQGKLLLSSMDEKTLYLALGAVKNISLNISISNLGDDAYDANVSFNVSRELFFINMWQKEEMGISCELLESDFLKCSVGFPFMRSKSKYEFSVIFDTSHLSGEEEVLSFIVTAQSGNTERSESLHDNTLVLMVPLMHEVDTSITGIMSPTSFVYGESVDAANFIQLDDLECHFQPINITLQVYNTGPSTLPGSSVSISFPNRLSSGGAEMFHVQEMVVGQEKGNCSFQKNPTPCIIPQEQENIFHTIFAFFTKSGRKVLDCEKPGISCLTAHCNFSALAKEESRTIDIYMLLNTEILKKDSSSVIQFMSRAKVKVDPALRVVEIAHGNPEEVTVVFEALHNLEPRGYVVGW
T1 sequence (P05556 21-728 limits assumed): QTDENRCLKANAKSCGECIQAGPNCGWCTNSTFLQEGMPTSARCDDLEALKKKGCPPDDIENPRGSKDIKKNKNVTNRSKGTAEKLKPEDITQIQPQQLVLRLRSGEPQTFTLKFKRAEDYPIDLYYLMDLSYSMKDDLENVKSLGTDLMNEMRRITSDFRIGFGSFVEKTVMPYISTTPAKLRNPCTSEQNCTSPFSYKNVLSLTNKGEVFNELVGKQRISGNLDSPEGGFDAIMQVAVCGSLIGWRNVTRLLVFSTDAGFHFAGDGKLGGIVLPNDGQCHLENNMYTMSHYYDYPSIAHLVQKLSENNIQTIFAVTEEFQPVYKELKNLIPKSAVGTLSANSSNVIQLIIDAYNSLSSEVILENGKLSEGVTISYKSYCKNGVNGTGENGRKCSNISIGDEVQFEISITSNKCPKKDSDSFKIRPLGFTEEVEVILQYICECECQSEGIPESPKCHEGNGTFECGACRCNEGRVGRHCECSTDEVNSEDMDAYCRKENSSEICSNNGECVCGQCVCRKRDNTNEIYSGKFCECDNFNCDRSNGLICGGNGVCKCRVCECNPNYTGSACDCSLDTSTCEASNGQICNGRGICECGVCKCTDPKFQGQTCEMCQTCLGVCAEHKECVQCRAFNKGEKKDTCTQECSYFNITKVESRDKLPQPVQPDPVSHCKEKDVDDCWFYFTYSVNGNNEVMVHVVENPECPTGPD
Sequence of recombinant integrin α9β1 (Q13797 30-981, chain 1 of 2): as the sequence (Q13797 30-981 limits assumed) above
Sequence of recombinant integrin α9β1 (P05556 21-728, chain 2 of 2): as the sequence (P05556 21-728 limits assumed) above

As to “D2634-L2645: 12-amino acid segment in the extra segment of CCP21, GST fusion protein (DQEDDMMEVPYL; also: GST fusion protein)”, the “binding of integrin α9β1 to smaller segments of D2628-S2664” value with integrin α9β1 (GST fusion proteins) is “bound”.

Take “E2641A: alanine substitution of Glu2641 in D2634-L2645, GST fusion protein (DQEDDMMAVPYL; also: GST fusion protein)”: in the test with integrin α9β1 (GST fusion proteins, FIG. 14), the “integrin binding activity of alanine scanning mutants of D2634-L2645” value is given as “almost completely abrogated the integrin binding activity”.

On to “D2628-S2664: extra 37-amino acid segment of CCP21, GST fusion (DGQGHFDQEDDMMEVPYLAHPQHLEATAKALENTKES; also: GST fusion)”, for which the “binding to integrin α9β1 (extra segment of CCP21)” value in the test with integrin α9β1 (GST fusion proteins, 1 mM MnCl2, FIG. 12) is recorded as “retained the binding activity”.

In the case of “pol-C: C-terminal fragment of polydom, residues 1192 to 3567 of SEQ ID NO: 2, C-terminal His tag”, in the test with RD cells (FIG. 4), the “cell adhesion potency compared with full-length polydom” value is “almost equivalent to that of full-length polydom” and the “promotion of RD cell adhesion” value is “capable of promoting cell adhesion”. In the test with RD cells (microscopic observation, FIG. 5), the “morphology of attached RD cells” value is reported as “exhibited spread morphology”. Besides, the “binding of recombinant integrin α9β1 to coated protein” value in the test with integrin α9β1 is “bound”. Moreover, the Kd in the test with integrin α9β1 (pol-C coated at 10 nM, 1 mM MnCl2, three independent determinations, read-out: dissociation constant between integrin α9β1 and ligand) was 32.4 ± 2.7 nM.

For the molecule EDDMMEVPY [EDDMMEVPY], the figures for the “proliferation of hematopoietic stem cells on polydom-coated plate after peptide treatment” value in the test with hematopoietic stem cells (listed as EDDMMEVPY peptide) and in the test on hematopoietic stem cells (listed as peptide consisting of the amino acid sequence represented by SEQ ID NO: 1) were “proliferate albeit more slowly than the cells on the fibronectin-coated plate” and “canceled”, respectively.

Take “D2628-L2645: segment in the N-terminal region of D2628-S2664, GST fusion protein (DGQGHFDQEDDMMEVPYL; also: GST fusion protein)”: in the test with integrin α9β1 (GST fusion proteins), the “binding of integrin α9β1 to smaller segments of D2628-S2664” value is recorded as “bound”.

B1: EDDMMEVPY peptide (synthetic) (peptide)
peptide: EDDMMEVPY
notes: Corresponds to Glu2636-Tyr2644 of mouse SVEP1
With B1, the IC50 in test [1] was found to be 180 nM.

B2: pol-N: N-terminal fragment of polydom, residues 18 to 789 of SEQ ID NO: 2, C-terminal His tag (protein, listed as Mus musculus)
chain: WTNFQPVAPSLNFSFRLFPEASPGALGRLAVPPASSEEEAAGSKVERLGRAFRSRVRRLRELSGSLELVFLVDESSSVGQTNFLNELKFVRKLLSDFPVVSTATRVAIVTFSSKNNVVARVDYISTSRAHQHKCALLSREIPAITYRGGGTYTKGAFQQAAQILRHSRENSTKVIFLITDGYSNGGDPRPIAASLRDFGVEIFTFGIWQGNIRELNDMASTPKEEHCYLLHSFEEFEALARRALHEDLPSGSFIQEDMARCSYLCEAGKDCCDRMASCKCGTHTGQFECICEKGYYGKGLQHECTACPSGTYKPEASPGGISTCIPCPDVSHTSPPGSTSPEDCVCREGYQRSGQTCEVVHCPALKPPENGFFIQNTCKNHFNAACGVRCRPGFDLVGSSIHLCQPNGLWSGTESFCRVRTCPHLRQPKHGHISCSTAEMSYNTLCLVTCNEGYRLEGSTRLTCQGNAQWDGPEPRCVERHCATFQKPKGVIISPPSCGKQPARPGMTCQLSCRQGYILSGVREVRCATSGKWSAKVQTAVCKDVEAPQISCPNDIEAKTGEQQDSANVTWQVPTAKDNSGEKVSVHVHPAFTPPYLFPIGDVAITYTATDSSGNQASCTFYIKVIDVEPPVIDWCRSPPPIQVVEKEHPASWDEPQFSDNSGAELVITSSHTQGDMFPHGETVVWYTATDPSGNNRTCDIHIVIKGSPCEVPFTPVNGDFICAQDSAGVNCSLSCKEGYDFTEGSTEKYYCAFEDGIWRPPYSTEWPDCAI
modifications: C-terminal His tag
Regarding B2, in the test with RD cells (FIG. 4), the “promotion of RD cell adhesion” value is “only pol-C was capable”. For the same molecule, the “binding of recombinant integrin α9β1 to coated protein” value in the test with integrin α9β1 is recorded as “not”.

B3: AEIDGIEL peptide (integrin α9β1 recognition sequence in tenascin-C, synthetic) (peptide)
peptide: AEIDGIEL
For the molecule B3, the IC50 in test [1] came to 7800 nM.
